The values that follow come from the RNAGym collection of RNA variant scans (doi:10.1021/acssynbio.7b00057).

The chains are these.
B1: Pistol ribozyme (parent)
chain: GGGUCGUUGUUCCAUAAUCGCGUGGAUAUGGCACGCAAGUUUCUACCGGGCACCGUAAAUGUCCGACUGGAGCCGUUCGGGCGGCUAUAAACAGACCUCAGGCCCGAAGCGUGGCGGCACCUGCCGCCGGUGGUAAAAAAGAUCGGAAGAGCACACGUCU

Variants of B1 are the subject of this series. Nature of the series: aptazyme ON/OFF ratio, guanine; higher = stronger switching; co-transcriptional cleavage with and without guanine.
U8A C13G: the “aptazyme ON/OFF ratio” value was 1.11.

Regarding U7G U10G U11A C13G, the “aptazyme ON/OFF ratio” value came to 1.07.

For U7G U10G U11A C13A, the “aptazyme ON/OFF ratio” value worked out at 1.11.

With U7G U10G U11A C13U, the “aptazyme ON/OFF ratio” value is 1.11.

With U7G U10A C12G C13U, the “aptazyme ON/OFF ratio” value stood at 1.17.

On to U7G U10A C12G C13A, for which the “aptazyme ON/OFF ratio” value was 1.15.

U7G U10A C12G C13G: the “aptazyme ON/OFF ratio” value amounted to 1.2.

With U7G U11G C12A, the “aptazyme ON/OFF ratio” value worked out at 1.11.

U7G U11G C12G: the “aptazyme ON/OFF ratio” value amounted to 1.23.

Take U7G U11G C12U: the “aptazyme ON/OFF ratio” value is 1.2.

As for U7G U10C U11C C12G C13G, the “aptazyme ON/OFF ratio” value turned out to be 1.08.

In the case of U7G U10C U11C C12G C13A, the “aptazyme ON/OFF ratio” value is 1.1.

U7G U10C U11C C12G C13U: the “aptazyme ON/OFF ratio” value turned out to be 1.06.

On to U7G U10C U11C C12U, for which the “aptazyme ON/OFF ratio” value is 1.12.

For the variant U7G U10C U11C C12G, the “aptazyme ON/OFF ratio” value came out at 1.13.

On to U7G U10C U11C C12A, for which the “aptazyme ON/OFF ratio” value amounted to 1.1.

With U8A G9A U10A C12G C13U, the “aptazyme ON/OFF ratio” value was 1.42.

For the variant U8A G9A U10A C12G C13G, the “aptazyme ON/OFF ratio” value is 1.28.

On to U8A G9A U10A C12G C13A, for which the “aptazyme ON/OFF ratio” value worked out at 1.25.

Consider U8A G9A U10A, for which the “aptazyme ON/OFF ratio” value was 1.65.

For U7G U10G U11G C12A C13A, the “aptazyme ON/OFF ratio” value came to 1.08.

For U7G U10G U11G C12A C13U, the “aptazyme ON/OFF ratio” value was 1.13.

In the case of U7G U10G U11G C12A C13G, the “aptazyme ON/OFF ratio” value came to 1.1.

Turning to U7G U10G U11C C12U C13A, the “aptazyme ON/OFF ratio” value was 1.08.

Take U7G U10G U11C C12U C13G: the “aptazyme ON/OFF ratio” value is 1.3.

As for U7G U10G U11C C12U C13U, the “aptazyme ON/OFF ratio” value came to 1.25.

Regarding U7G U10G U11A C12A C13U, the “aptazyme ON/OFF ratio” value was 1.08.

Regarding U7G U10G U11A C12A C13G, the “aptazyme ON/OFF ratio” value was 1.09.

For U7G U10G U11A C12A C13A, the “aptazyme ON/OFF ratio” value is 1.14.

On to U7G U10C U11A C12G C13A, for which the “aptazyme ON/OFF ratio” value amounted to 1.07.

For U7G U10C U11A C12G C13G, the “aptazyme ON/OFF ratio” value is 1.11.

For the variant U7G U10C U11A C12G C13U, the “aptazyme ON/OFF ratio” value turned out to be 1.06.

As to U7G U10C U11A C12U C13U, the “aptazyme ON/OFF ratio” value was found to be 1.1.

As for U7G U10C U11A C12U C13G, the “aptazyme ON/OFF ratio” value was 1.11.

Consider U7G U10C U11A C12U C13A, for which the “aptazyme ON/OFF ratio” value is 1.12.

For the variant U7G U10A C13U, the “aptazyme ON/OFF ratio” value turned out to be 1.16.

Regarding U7G U10A C13G, the “aptazyme ON/OFF ratio” value was 1.12.

For U7G U10A C13A, the “aptazyme ON/OFF ratio” value is 1.13.

On to U7G U10C C12G C13A, for which the “aptazyme ON/OFF ratio” value worked out at 1.09.

U7G U10C C12G C13U: the “aptazyme ON/OFF ratio” value is 1.14.

For U7G U10C C12G C13G, the “aptazyme ON/OFF ratio” value was found to be 1.04.

For U7G U10G U11C C13U, the “aptazyme ON/OFF ratio” value was 1.13.

In the case of U7G U10G U11C C13A, the “aptazyme ON/OFF ratio” value amounted to 1.11.

Turning to U7G U10G U11C C13G, the “aptazyme ON/OFF ratio” value came to 1.07.

On to U8A C12A C13A, for which the “aptazyme ON/OFF ratio” value is 1.24.

Consider U8A C12A C13U, for which the “aptazyme ON/OFF ratio” value was 1.19.

As for U8A C12A C13G, the “aptazyme ON/OFF ratio” value is 1.13.

Turning to U7G U10C U11A C13A, the “aptazyme ON/OFF ratio” value was determined as 1.08.

As to U7G U10C U11A C13U, the “aptazyme ON/OFF ratio” value is 1.16.

On to U7G U10C U11A C13G, for which the “aptazyme ON/OFF ratio” value stood at 1.06.

For U7G U11G C12U C13A, the “aptazyme ON/OFF ratio” value was 1.14.

Regarding U7G U11G C12U C13G, the “aptazyme ON/OFF ratio” value turned out to be 1.12.

Consider U7G U11G C12U C13U, for which the “aptazyme ON/OFF ratio” value was 1.2.

With U7G U10C U11C C13U, the “aptazyme ON/OFF ratio” value is 1.05.

In the case of U7G U10C U11C C13A, the “aptazyme ON/OFF ratio” value is 1.06.

With U7G U10C U11C C13G, the “aptazyme ON/OFF ratio” value was 1.01.

On to U7G U11C C12G C13U, for which the “aptazyme ON/OFF ratio” value is 1.14.

For U7G U11C C12G C13A, the “aptazyme ON/OFF ratio” value turned out to be 1.2.

As for U7G U11C C12G C13G, the “aptazyme ON/OFF ratio” value was 1.09.

With U7G U11C C12A C13U, the “aptazyme ON/OFF ratio” value was 1.22.

Consider U7G U11C C12A C13A, for which the “aptazyme ON/OFF ratio” value was found to be 1.12.

As to U7G U11C C12A C13G, the “aptazyme ON/OFF ratio” value was 1.1.

On to U7G U10A, for which the “aptazyme ON/OFF ratio” value is 1.18.

Take U7G U10G: the “aptazyme ON/OFF ratio” value is 1.42.

Take U7G U10C: the “aptazyme ON/OFF ratio” value stood at 1.5.

Turning to U7G U10C U11C C12A C13G, the “aptazyme ON/OFF ratio” value stood at 1.08.

Turning to U7G U10C U11C C12A C13U, the “aptazyme ON/OFF ratio” value was 1.11.

Regarding U7G U10C U11C C12A C13A, the “aptazyme ON/OFF ratio” value came to 1.08.

For the variant U7G U8G U11C C12U C13A, the “aptazyme ON/OFF ratio” value was determined as 1.38.

As for U7G U8G U11C C12U C13G, the “aptazyme ON/OFF ratio” value came out at 1.3.

Take U7G U8G U11C C12U C13U: the “aptazyme ON/OFF ratio” value was found to be 1.44.

On to U7G U10A U11A C12G C13A, for which the “aptazyme ON/OFF ratio” value came to 1.05.

Consider U7G U10A U11A C12G C13U, for which the “aptazyme ON/OFF ratio” value came out at 1.16.

Take U7G U10A U11A C12G C13G: the “aptazyme ON/OFF ratio” value worked out at 1.16.

Turning to U7G U11G C12G C13A, the “aptazyme ON/OFF ratio” value came to 1.09.

As to U7G U11G C12G C13U, the “aptazyme ON/OFF ratio” value stood at 1.04.

Take U7G U11G C12G C13G: the “aptazyme ON/OFF ratio” value worked out at 1.14.

For the variant U7G U10C U11G C13G, the “aptazyme ON/OFF ratio” value was 1.09.

For the variant U7G U10C U11G C13U, the “aptazyme ON/OFF ratio” value is 1.14.

As for U7G U10C U11G C13A, the “aptazyme ON/OFF ratio” value came to 1.08.

U7G U8G U11A C13U: the “aptazyme ON/OFF ratio” value is 1.24.

In the case of U7G U10G C12G C13G, the “aptazyme ON/OFF ratio” value stood at 1.07.

As for U7G U10G C12G C13U, the “aptazyme ON/OFF ratio” value was 1.12.

As for U7G U10G C12G C13A, the “aptazyme ON/OFF ratio” value is 1.21.
